Changes are numbered by the printed parent chain. Each block holds one molecule with its values, some of them ahead of it.
Columns and labels:
recombinant human TGFβ2 [1] = target: T1, recombinant human TGFβ2 (human, UniProt P61812 303-414); test: cell-based or functional assay
T1 sequence (looked up): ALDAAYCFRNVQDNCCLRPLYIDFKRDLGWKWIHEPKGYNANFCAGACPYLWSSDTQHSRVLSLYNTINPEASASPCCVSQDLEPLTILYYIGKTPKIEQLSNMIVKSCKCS

TGFβ3 [2] = target: T2, TGFβ3 (UniProt P10600 301-412); test: cell-based or functional assay
T2 sequence (looked up): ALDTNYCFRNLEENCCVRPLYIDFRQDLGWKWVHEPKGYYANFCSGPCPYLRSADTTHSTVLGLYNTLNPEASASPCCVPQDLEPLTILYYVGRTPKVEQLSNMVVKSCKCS

recombinant human TGFβ1 [3] = target: T3, recombinant human TGFβ1 (human, UniProt P01137 279-390); test: cell-based or functional assay
T3 sequence (P01137 279-390 limits assumed): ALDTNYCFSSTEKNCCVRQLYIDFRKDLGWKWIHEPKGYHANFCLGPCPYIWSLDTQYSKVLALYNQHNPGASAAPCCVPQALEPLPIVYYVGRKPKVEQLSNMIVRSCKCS

recombinant human TGFβ1 [4] = target: T3, recombinant human TGFβ1; test: A549 cell radioreceptor assay (nM IgG)
TGFβ3 [5] = target: T2, TGFβ3; test: A549 cell radioreceptor assay (nM IgG)
recombinant human TGFβ2 [6] = target: T1, recombinant human TGFβ2; test: A549 cell radioreceptor assay (nM IgG)
Method: (§1) Aliqouts of ¹²⁵I-TGFβ1 or TGFβ2 (70-90 TBq/mmol; Amersham International) at 20 pM are preincubated with antibody in binding medium at room temperature for 1 h. Duplicate samples of 0.5 ml of TGFβ/antibody mixtures are then added to the cell monlayers and are incubated at 37° C. for 1-2 h. Control wells contain TGFβ only. Unbound TGFβ is removed by washing 4 times with Hank's balanced salt solution containing 0.1% BSA. Cells are solubilised in 0.8 ml 25 mM Tris HCl pH 7.5, 10% glycerol, 1% Triton X-100 at room temperature for 20 min. The contents of each well are removed and ¹²⁵I measured in a gamma counter.
The ability of 6B1 IgG4 to inhibit binding of TGFβ isoforms to receptors was measured in a radioreceptor assay as described in example 4.

recombinant human TGFβ2 [7] = target: T1, recombinant human TGFβ2; test: BIACore, scFv
Method: (§2) The off-rates for binding to TGFβ1 or TGFβ2 of the single chain Fv fragments described in this example were determined as described by Karlsson et al (R. Karlsson et al, J. Immunol. Methods 145, 229-240, 1991). The results obtained are shown in Table 2, together with dissociation constants for those which have been determined.

recombinant human TGFβ2 [8] = target: T1, recombinant human TGFβ2; test: cell-based or functional assay; remark: listed apart in the source
recombinant human TGFβ2 [9] = target: T1, recombinant human TGFβ2; test: BIAcore 2000, koff divided by kon
Method: (§3) To determine the kinetic parameters, a series of dilutions of the antibody samples was made in HBS from about 500 μg/ml down to less than 1 μg/ml, usually through doubling dilutions. After the antibody has been injected over the antigen surface, the surface is washed with HBS, then regenerated by stripping off the bound antibody with a pulse of 100 mM HCl. At the higher concentrations of antibody the antigen on the chip surface is saturated, and the off rate is determined on washing with buffer in the dissociation phase. For determination of the on-rate, lower concentrations of antibody are used, giving a linear binding phase in the sensorgram, allowing kₒₙ determination.
(§4) 6B1 IgG4 was purified from the GS/NS0 cell line of Example 10 as in Example 2. 6B1 single chain Fv was expressed intracellularly in E. coli, refolded in vitro (using the methodology of WO94/18227), and purified to give a homogeneous product. The values of kₒₙ and koff were determined for 6B1 IgG4 for binding to both TGFβ2 and TGFβ3, and for the single-chain Fv 6B1 for binding to TGFβ2. The dissociation constant was calculated by dividing koff by kₒₙ.

recombinant human TGFβ2 [10] = target: T1, recombinant human TGFβ2; test: BIAcore 2000, antigen immobilised, antibody as analyte
Method: The immobilisation of ligand is automated by the BIACore 2000 machine, and all steps are carried out in the autosampler or in the flowcell, on the dextran surface of the chip. The buffer used throughout the immobilisation procedure, and the analysis of samples is Hepes-buffered saline (HBS) with a surfactant (Pharmacia Biosensor). The chips (Pharmacia, CM5), have dextran coating on a thin layer of gold. NHS at 100 mM and EDC at 400 mM are mixed by the autosampler, and then a fixed volume is injected over the flowcell surface. This is followed by an injection of antigen in a suitable buffer. In the case of TGFβ, a surface of the correct density was given by using 25-30 μg/ml solution of TGFβ2 (AMS) OR TGFβ3 (R & D systems) in 10 mM acetate. After injection of the ligand, the chip is blocked using 1M ethanolamine. The total amount of TGFβ bound was assessed from the total increase in resonance units over this period.
as §3, §4

recombinant human TGFβ2 [11] = target: T1, recombinant human TGFβ2; test: radioreceptor assay, inhibition of 125I-TGFβ2 binding to A549 cells; concentration of antibody combining sites
Method: (§5) Cells are seeded at 1-2×10^5 cells/ml/well into the wells of 24-well cluster plates and grown for 24 h in serum-free DMEM. Cell monlayers are washed twice with serum-free DMEM and 0.5 ml binding medium (DMEM/Hams F12 (Sigma D-6421) containing 0.1% (v/v) BSA added to each well.
as §1

recombinant human TGFβ1 [12] = target: T3, recombinant human TGFβ1; test: radioreceptor assay, inhibition of 125I-TGFβ1 binding to A549 cells; concentration of antibody combining sites
Method: as §5, §1

recombinant human TGFβ1 [13] = target: T3, recombinant human TGFβ1; test: BIACore, scFv
Method: as §2

recombinant human TGFβ1 [14] = target: T3, recombinant human TGFβ1; test: radioreceptor assay, inhibition of 125I-TGFβ1 binding to A549 cells, Example 9
recombinant human TGFβ1 [15] = target: T3, recombinant human TGFβ1; test: BIACore, scFv injected over immobilised antigen
Method: (§6) The antibodies were also shown to be specific for TGFβ2 compared to TGFβ1 by relative binding to theBIACore sensor chips coated with the appropriate antigen. TGFβ1 and TGFβ2 were immobilised by amine coupling to Biosensor CM5 sensorchips (Pharmacia) according to the manufacturers instructions. […] The amount of TGFβ bound was assessed as the total increase in resonance units (RUs) over this period.

recombinant human TGFβ2 [16] = target: T1, recombinant human TGFβ2; test: BIACore, scFv injected over immobilised antigen
Method: as §6

B1: 6B1 scFv (scFv)
scFv: EVQLVESGGGVVQPGRSLRLSCAASGFTFSSYGMHWVRQAPGKGLEWVAVIWYDGSNKYYADSVKGRFTISRDNSKNTLYLQMDSLRAEDTAVYYCGRTLESSLWGQGTLVTVSSGGGGSGGGGSGGGGSSSELTQDPAVSVALGQTVRITCQGDSLRSYYASWYQQKPGQAPVLVIYGKNNRPSGIPDRFSGSSSGNTASLTITGAQAEDEADYYCNSRDSSSTHRGVFGGGTKLTVLG
notes: also called 6B1 single chain Fv
- koff (recombinant human TGFβ2 [7]): 0.0006 s⁻¹
- I.C.50 in TF1 assay (neutralisation of TGFβ2 inhibition of TF1 cell proliferation) (recombinant human TGFβ2 [8]): 15 nM
- Kd (recombinant human TGFβ2 [9]): 2.32 nM
- koff (recombinant human TGFβ2 [10]): 0.000668 s⁻¹
- kon (recombinant human TGFβ2 [10]): 287000 M⁻¹ s⁻¹
- IC50 (recombinant human TGFβ2 [11]): 0.3 nM

B2: 7A3 scFv (scFv)
scFv: QVQLVESGGGVVQPGRSLRLSCAASGFTFSSYGMHWVRQAPGKGLEWVAVISYDGSNKYYADSVKGRFTISRDNSKNTLYLQMNSLRAEDTAVYYCAKTGEYSGYDSSGVDVWGKGTTVTVSSGGGGSGGGGSGGGGSDIVMTQSPDSLAVSLGERATINCKSSQSLLYSYNKMNYLAWYQQKPGQPPKLLINWASTRESGVPDRFSGSGSGTDFTLTISSLQAEDVAVYYCQQYYATPLTFGHGTKVEIKR
notes: Light chain shuffle of 1-B2
- IC50 (recombinant human TGFβ1 [12]): > 100 nM

B4: 31G9 scFv (scFv)
scFv: QVQLVQSGGGVVQPGRSLRLSCAASGFTFSSYGMHWVRQAPGKGLEWVAVISYDGSIKYYADSVKGRFTISRDNSKNTLYLQMNSLRAEDTAVYYCARTGEYSGYDTSGVELWGQGTTVTVSSGGGGSGGGGSGGGGSDIVMTQSPSTLSASVGDRVTITCRASQGISSWLAWYQQKPGRAPKVLIYKASTLESGVPSRFSGSGSGTDFTLTISSLQPEDFATYYCQQSYSTPWTFGQGTKLEIKR
notes: VH-linker-VL in pCANTAB6; also called 31G9 single chain Fv
- Kd (recombinant human TGFβ1 [13]): 12 nM
- koff (recombinant human TGFβ1 [13]): 0.0009 s⁻¹
- IC50 (recombinant human TGFβ1 [12]): 30 nM

B7: 6A5 scFv (scFv)
scFv: EVQLVESGGGVVQPGRSLRLSCAASGFTFSSYGMHWVRQAPGKGLEWVAVIWYDGSNKYYADSVKGRFTISRDNSKNTLYLQMDSLRAEDTAVYYCGRTLESSLWGQGTLVTVSSGGGGSGGGGSGGGGSSSELTQDPAVSVALGQTVRITCQGDSLRSYYASWYQQKPGQAPVLVIYGKNNRPSGIPDRFAGSNSGNTASLTITGAQAEDEADYYCSSRDSSGNHVVFGGGTKLTVLG
notes: also called 6A5 single chain Fv
- Kd (recombinant human TGFβ2 [7]): 0.7 nM
- koff (recombinant human TGFβ2 [7]): 0.00014 s⁻¹
- I.C.50 in TF1 assay (neutralisation of TGFβ2 inhibition of TF1 cell proliferation) (recombinant human TGFβ2 [8]): 8 nM
- increase in resonance units (recombinant human TGFβ1 [15]): 480 RU
- increase in resonance units (recombinant human TGFβ2 [16]): 71 RU
- IC50 (recombinant human TGFβ2 [11]): 1.5 nM

B10: 6H1 scFv (scFv)
scFv: EVQLVESGGGVVQPGRSLRLSCAASGFTFSSYGMHWVRQAPGKGLEWVAVIWYDGSNKYYADSVKGRFTISRDNSKNTLYLQMDSLRAEDTAVYYCGRTLESSLWGQGTLVTVSSGGGGSGGGGSGGGGSDVVMTQSPSSLSASVGDRVTITCRASQGISNYLAWYQQKPGKAPKLLIYKASTLESGVPSRFSGSGSGTEFTLTISSLQPEDFATYYCQQSYSTPRTFGQGTKVDIKR
- koff (recombinant human TGFβ2 [7]): 0.0011 s⁻¹
- I.C.50 in TF1 assay (neutralisation of TGFβ2 inhibition of TF1 cell proliferation) (recombinant human TGFβ2 [8]): 1.5 nM
- increase in resonance units (recombinant human TGFβ1 [15]): 686 RU
- increase in resonance units (recombinant human TGFβ2 [16]): 77 RU
- IC50 (recombinant human TGFβ2 [11]): 0.22 nM

The next lines start with the values.

- TF1 cell proliferation assay IC50 (nM IgG) (recombinant human TGFβ2 [1]): 10 nM
- TF1 cell proliferation assay IC50 (nM IgG) (TGFβ3 [2]): 0.1 nM
- TF1 cell proliferation assay IC50 (nM IgG) (recombinant human TGFβ1 [3]): 1.5 nM
- IC50 (recombinant human TGFβ1 [4]): 0.55 nM
- IC50 (TGFβ3 [5]): 0.03 nM
- IC50 (recombinant human TGFβ2 [6]): 0.5 nM
Molecule: Mouse anti-TGFβ1,2,3 monoclonal antibody from Genzyme

- koff (recombinant human TGFβ1 [13]): 0.0012 s⁻¹
- IC50 (recombinant human TGFβ1 [14]): 40 nM
- IC50 (recombinant human TGFβ1 [12]): 4.5 nM
B3: CS32 scFv (scFv)
scFv: B2 scFv with E6Q, N57I, K98R, S107T, D111E, V112L, K115Q

- koff (recombinant human TGFβ1 [13]): 0.0017 s⁻¹
- IC50 (recombinant human TGFβ1 [12]): ~60 nM
B5: CS39 scFv (scFv)
scFv: B4 scFv with I140V, T148S, S169N, W170Y, R180K, V184L, D208E, W234R, L242V, E243D

- koff (recombinant human TGFβ2 [7]): 0.0021 s⁻¹
- I.C.50 in TF1 assay (neutralisation of TGFβ2 inhibition of TF1 cell proliferation) (recombinant human TGFβ2 [8]): 90 nM
- increase in resonance units (recombinant human TGFβ1 [15]): 616 RU
- increase in resonance units (recombinant human TGFβ2 [16]): 115 RU
- IC50 (recombinant human TGFβ2 [11]): 3 nM
B6: 14F12 scFv (scFv)
scFv: EIQLVESGGGVVQPGRSLRLSCAASGFTFSSYAMHWVRQAPAKGLEWVAVISYDGSNKYYADSVKGRFTISRDNSKNTLYLQMNSLRAEDTAVYYCARAGLETTWGQGTLVTVSSSGGGGGSGGGGSGGGGSSSELTQDPAVSVALGQTVRITCQGDSLRNYYANWYQQKPGQAPVLVIYGKNNRPSGIPDRFSGSSSGNTASLTITGARAEDEGVYYCNSRDSSGAVFGGGTKLTVLG

- IC50 (recombinant human TGFβ1 [14]): ~8 nM
B8: CS37 scFv (scFv)
scFv: QVQLVQSGGGVVQPGRSLRLSCAASGFTFSSYGMHWVRQAPGKGLEWVAVISYDGSIKYYADSVKGRFTISRDNSKNTLYLQMNSLRAEDTAVYYCARTGEYSGYDTSGVELWGQGTTVTVSSGGGGSGGGGSGGGGSEIVLTQSPSSLSASVGDRVTITCRASQGIGDDLGWYQQKPGKAPILLIYGTSTLQSGVPSRFSGSGSGTDFTLTINSLQPEDFATYYCLQDSNYPLTFGGGTRLEIKR

- IC50 (recombinant human TGFβ2 [11]): 1.6 nM
B9: 11E6 IgG (antibody, V domains shown)
VH: EIQLVESGGGVVQPGRSLRLSCAASGFTFSSYAMHWVRQAPAKGLEWVAVISYDGSNKYYADSVKGRFTISRDNSKNTLYLQMNSLRAEDTAVYYCARAGLETTWGQGTLVTVSS
VL: EVVLTQSPSSLSASVGDRVTITCRASQGIGDDLGWYQQKPGKAPILLIYGTSTLQSGVPSRFSGSGSGTDFTLTINSLQPEDFATYYCLQDSNYPLTFGGGTRLEIKR
notes: its construction as a whole antibody is not described

Source: patent US20050049403A1 (CAMBRIDGE ANTIBODY TECHNOLOGY, published 2005)
